These results are taken from PMC4678481, “Structural insights into the mechanism defining substrate affinity in Arabidopsis thaliana dUTPase: the role of tryptophan 93 in ligand orientation” (BMC Research Notes, 2015).

Substrate in the series: O=c1ccn([C@H]2C[C@H](O)[C@@H](COP(=O)(O)OP(=O)(O)OP(=O)(O)O)O2)c(=O)[nH]1
Briefly: purified protein. Particulars: pH 7.6, 25 °C, 5 mM MgCl2, 100 mM KCl, 0.25 mM bicine, 50 nM enzyme. It counts as biochemical, Arabidopsis thaliana.

B1: Arabidopsis dUTPase (Arabidopsis thaliana) (protein)
chain: MACVNEPSPKLQKLDRNGIHGDSSPSPFFKVKKLSEKAVIPTRGSPLSAGYDLSSAVDSKVPARGKALIPTDLSIAVPEGTYARIAPRSGLAWKHSIDVGAGVIDADYRGPVGVILFNHSDADFEVKFGDRIAQLIIEKIVTPDVVEVDDLDETVRGDGGFGSTGV
notes: full length, 166 residues; His tag removed by thrombin, extra Gly-Ser-His at N-terminus; expressed in E. coli JM103 (DE3); homotrimer
Consider B1, for which the Michaelis constant (Km) (commonly the concentration of substrate that gives half-maximal velocity) was found to be 0.4 ± 0.1 µM.
